In US20140030731:

B1: endogenous human ROCKI, Ser^1333 phosphorylated (HEK-293T cell extracts) (protein)
chain: STGDSFETRFEKMDNLLRDPKSEVNSDCLLDGLDALVYDLDFPALRKNKNIDNFLSRYKDTINKIRDLRMKAEDYEVVKVIGRGAFGEVQLVRHKSTRKVYAMKLLSKFEMIKRSDSAFFWEERDIMAFANSPWVVQLFYAFQDDRYLYMVMEYMPGGDLVNLMSNYDVPEKWARFYTAEVVLALDAIHSMGFIHRDVKPDNMLLDKSGHLKLADFGTCMKMNKEGMVRCDTAVGTPDYISPEVLKSQGGDGYYGRECDWWSVGVFLYEMLVGDTPFYADSLVGTYSKIMNHKNSLTFPDDNDISKEAKNLICAFLTDREVRLGRNGVEEIKRHLFFKNDQWAWETLRDTVAPVVPDLSSDIDTSNFDDLEEDKGEEETFPIPKAFVGNQLPFVGFTYYSNRRYLSSANPNDNRTSSNADKSLQESLQKTIYKLEEQLHNEMQLKDEMEQKCRTSNIKLDKIMKELDEEGNQRRNLESTVSQIEKEKMLLQHRINEYQRKAEQENEKRRNVENEVSTLKDQLEDLKKVSQNSQLANEKLSQLQKQLEEANDLLRTESDTAVRLRKSHTEMSKSISQLESLNRELQERNRILENSKSQTDKDYYQLQAILEAERRDRGHDSEMIGDLQARITSLQEEVKHLKHNLEKVEGERKEAQDMLNHSEKEKNNLEIDLNYKLKSLQQRLEQEVNEHKVTKARLTDKHQSIEEAKSVAMCEMEKKLKEEREAREKAENRVVQIEKQCSMLDVDLKQSQQKLEHLTGNKERMEDEVKNLTLQLEQESNKRLLLQNELKTQAFEADNLKGLEKQMKQEINTLLEAKRLLEFELAQLTKQYRGNEGQMRELQDQLEAEQYFSTLYKTQVKELKEEIEEKNRENLKKIQELQNEKETLATQLDLAETKAESEQLARGLLEEQYFELTQESKKAASRNRQEITDKDHTVSRLEEANSMLTKDIEILRRENEELTEKMKKAEEEYKLEKEEEISNLKAAFEKNINTERTLKTQAVNKLAEIMNRKDFKIDRKKANTQDLRKKEKENRKLQLELNQEREKFNQMVVKHQKELNDMQAQLVEECAHRNELQMQLASKESDIEQLRAKLLDLSDSTSVASFPSADETDGNLPESRIEGWLSVPNRGNIKRYGWKKQYVVVSSKKILFYNDEQDKEQSNPSMVLDIDKLFHVRPVTQGDVYRAETEEIPKIFQILYANEGECRKDVEMEPVQQAEKTNFQNHKGHEFIPTLYHFPANCDACAKPLWHVFKPPPALECRRCHVKCHRDHLDKKEDLICPCKVSYDVTSARDMLLLACSQDEQKKWVTHLVKKIPKNPPSGFVRASPRTLSTRSTANQSFRKVVKNTSGKTS
B2: endogenous human ROCKII, Ser^1366 phosphorylated (HEK-293T cell extracts; human breast tumor tissue) (protein)
chain: MSRPPPTGKMPGAPETAPGDGAGASRQRKLEALIRDPRSPINVESLLDGLNSLVLDLDFPALRKNKNIDNFLNRYEKIVKKIRGLQMKAEDYDVVKVIGRGAFGEVQLVRHKASQKVYAMKLLSKFEMIKRSDSAFFWEERDIMAFANSPWVVQLFYAFQDDRYLYMVMEYMPGGDLVNLMSNYDVPEKWAKFYTAEVVLALDAIHSMGLIHRDVKPDNMLLDKHGHLKLADFGTCMKMDETGMVHCDTAVGTPDYISPEVLKSQGGDGFYGRECDWWSVGVFLYEMLVGDTPFYADSLVGTYSKIMDHKNSLCFPEDAEISKHAKNLICAFLTDREVRLGRNGVEEIRQHPFFKNDQWHWDNIRETAAPVVPELSSDIDSSNFDDIEDDKGDVETFPIPKAFVGNQLPFIGFTYYRENLLLSDSPSCRETDSIQSRKNEESQEIQKKLYTLEEHLSNEMQAKEELEQKCKSVNTRLEKTAKELEEEITLRKSVESALRQLEREKALLQHKNAEYQRKADHEADKKRNLENDVNSLKDQLEDLKKRNQNSQISTEKVNQLQRQLDETNALLRTESDTAARLRKTQAESSKQIQQLESNNRDLQDKNCLLETAKLKLEKEFINLQSALESERRDRTHGSEIINDLQGRICGLEEDLKNGKILLAKVELEKRQLQERFTDLEKEKSNMEIDMTYQLKVIQQSLEQEEAEHKATKARLADKNKIYESIEEAKSEAMKEMEKKLLEERTLKQKVENLLLEAEKRCSLLDCDLKQSQQKINELLKQKDVLNEDVRNLTLKIEQETQKRCLTQNDLKMQTQQVNTLKMSEKQLKQENNHLMEMKMNLEKQNAELRKERQDADGQMKELQDQLEAEQYFSTLYKTQVRELKEECEEKTKLGKELQQKKQELQDERDSLAAQLEITLTKADSEQLARSIAEEQYSDLEKEKIMKELEIKEMMARHKQELTEKDATIASLEETNRTLTSDVANLANEKEELNNKLKDVQEQLSRLKDEEISAAAIKAQFEKQLLTERTLKTQAVNKLAEIMNRKEPVKRGNDTDVRRKEKENRKLHMELKSEREKLTQQMIKYQKELNEMQAQIAEESQIRIELQMTLDSKDSDIEQLRSQLQALHIGLDSSSIGSGPGDAEADDGFPESRLEGWLSLPVRNNTKKFGWVKKYVIVSSKKILFYDSEQDKEQSNPYMVLDIDKLFHVRPVTQTDVYRADAKEIPRIFQILYANEGESKKEQEFPVEPVGEKSNYICHKGHEFIPTLYHFPTNCEACMKPLWHMFKPPPALECRRCHIKCHKDHMDKKEEIIAPCKVYYDISTAKNLLLLANSTEEQQKWVSRLVKKIPKKPPAPDPFARSSPRTSMKIQQNQSIRRPSRQLAPNKPS

Assays:
[1] = molecular target: constitutively active GFP-RhoAV14, P61586
[2] = molecular target: GFP-RhoAV14E40L (constitutively active mutant of RhoA defective in its interaction with ROCK), P61586
GFP-RhoAV14E40L (constitutively active mutant of RhoA defective in its interaction with ROCK), P61586, sequence (P61586 other isoform, or with tags, fused parts or gaps mutant): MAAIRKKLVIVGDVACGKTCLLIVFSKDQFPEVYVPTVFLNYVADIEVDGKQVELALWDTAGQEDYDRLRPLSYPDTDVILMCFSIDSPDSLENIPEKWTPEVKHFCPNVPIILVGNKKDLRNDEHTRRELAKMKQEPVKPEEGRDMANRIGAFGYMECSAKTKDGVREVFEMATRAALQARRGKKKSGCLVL

constitutively active GFP-RhoAV14, P61586, sequence (P61586 other isoform, or with tags, fused parts or gaps): as the sequence (P61586 other isoform, or with tags, fused parts or gaps mutant) above, with L40E counted along it

Row | Protein | level of ROCKI Ser^1333 phosphorylation (Western blotting with antibody-I, HEK-293T extracts) [1] | level of ROCK Ser^1366 phosphorylation (Western blotting with antibody-II, HEK-293T extracts) [1] | level of ROCKII Ser^1366 phosphorylation (Western blotting with antibody-II, HEK-293T extracts) [2]
1 | B1 | the changes on the level of ROCKI Ser^1333 phosphorylaion also indeed enhanced due to RhoA activation |  | 
2 | B2 |  | the level of ROCK Ser^1366 phosphorylation in the GFP-RhoAV14 expression cells was enhanced | neither GFP-RhoAV14E40L nor GFP-RhoAN19 transfection shows no the enhancement of RCOKII Ser^1366 phosphorylation
